Reference: patent publication US20210332360

Legend:
Experiment in all cases: flow
[1] = target: T1, DC-SIGN (DC-SIGNR/CD299) (Homo sapiens) (UniProt Q9H2X3); conditions: after the 5' primer region all dT replaced by 4 (alpha-D-mannose-triazole-modified C8-alkyne-dU); particle-displayed; SB with Mg, Ca, Mn
T1 sequence: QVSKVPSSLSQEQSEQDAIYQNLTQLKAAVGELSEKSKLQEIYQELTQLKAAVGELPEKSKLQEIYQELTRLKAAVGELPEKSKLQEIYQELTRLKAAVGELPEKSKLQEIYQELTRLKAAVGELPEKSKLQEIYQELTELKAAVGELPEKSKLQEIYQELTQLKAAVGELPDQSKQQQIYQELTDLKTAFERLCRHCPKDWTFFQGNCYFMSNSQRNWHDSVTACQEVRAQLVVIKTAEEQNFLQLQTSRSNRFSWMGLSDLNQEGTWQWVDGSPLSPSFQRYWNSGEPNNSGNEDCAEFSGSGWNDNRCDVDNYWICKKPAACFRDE

[2] = target: T2, DC-SIGN (SIGNR1/CD209b) (Mus musculus) (UniProt Q8CJ91); conditions: after the 5' primer region all dT replaced by 4 (alpha-D-mannose-triazole-modified C8-alkyne-dU); counter-target; 3.5-fold weaker than human
T2 sequence: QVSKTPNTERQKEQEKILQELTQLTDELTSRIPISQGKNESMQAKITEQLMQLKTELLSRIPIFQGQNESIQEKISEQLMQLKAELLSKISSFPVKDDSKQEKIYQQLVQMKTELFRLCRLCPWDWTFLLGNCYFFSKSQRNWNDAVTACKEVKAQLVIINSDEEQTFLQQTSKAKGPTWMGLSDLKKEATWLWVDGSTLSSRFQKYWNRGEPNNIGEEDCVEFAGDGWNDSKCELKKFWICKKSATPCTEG

[3] = target: T3, Pisum sativum agglutinin (PSA) (Pisum sativum) (UniProt P02867+P02867); conditions: counter-target
T3 sequence 1: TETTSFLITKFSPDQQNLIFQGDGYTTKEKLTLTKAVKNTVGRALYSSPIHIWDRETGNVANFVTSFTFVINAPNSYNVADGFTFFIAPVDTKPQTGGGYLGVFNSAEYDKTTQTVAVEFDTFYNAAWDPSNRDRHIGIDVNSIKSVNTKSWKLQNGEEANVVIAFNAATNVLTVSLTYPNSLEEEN
T3 sequence 2: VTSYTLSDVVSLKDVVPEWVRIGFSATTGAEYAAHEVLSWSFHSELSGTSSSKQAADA

GATCCCAGTCCGAAGTAATCCAAGGGTAATTGGGAAATAAGGATGGGGTAATATGCAACCCTTGTGCAAACGGCTATAGG [D1]
Kd [1]: 3.6 nM | Kd [2]: 12.5 nM

GATCCCAGTCCGAAGTAATCGTTGCATCTGCACGACTGGTGAGCTTGAGTGGCAGAAGAACTTGTGCAAACGGCTATAGG [3-1]
Kd ([3]; after the 5' primer region (GATCCCAGTCCGAAGTAATC, natural) all dT replaced by 4 (alpha-D-mannose-triazole-modified C8-alkyne-dU) and all dC by 2 (5-formyl-dC)): > 1000 nM

GATCCCAGTCCGAAGTAATCGTTGCATCTGCACGACTGGTGAGCTTGAGTGGCAGAAGAACTTGTGCAAACGGCTATAGG [3-1m]
Kd ([3]; after the 5' primer region all dT replaced by 4 (alpha-D-mannose-triazole-modified C8-alkyne-dU), natural dC): > 1000 nM
